Laboratory results taken from paper PMC10786891, “Massively parallel profiling of RNA-targeting CRISPR-Cas13d”.
Where a chain is given by its changes, count along the chain named.

T1: EsCas13d, nuclease-dead (Eubacterium siraeum, UniProt B0MS50, R295A;H300A;R849A;H854A)
T1 sequence: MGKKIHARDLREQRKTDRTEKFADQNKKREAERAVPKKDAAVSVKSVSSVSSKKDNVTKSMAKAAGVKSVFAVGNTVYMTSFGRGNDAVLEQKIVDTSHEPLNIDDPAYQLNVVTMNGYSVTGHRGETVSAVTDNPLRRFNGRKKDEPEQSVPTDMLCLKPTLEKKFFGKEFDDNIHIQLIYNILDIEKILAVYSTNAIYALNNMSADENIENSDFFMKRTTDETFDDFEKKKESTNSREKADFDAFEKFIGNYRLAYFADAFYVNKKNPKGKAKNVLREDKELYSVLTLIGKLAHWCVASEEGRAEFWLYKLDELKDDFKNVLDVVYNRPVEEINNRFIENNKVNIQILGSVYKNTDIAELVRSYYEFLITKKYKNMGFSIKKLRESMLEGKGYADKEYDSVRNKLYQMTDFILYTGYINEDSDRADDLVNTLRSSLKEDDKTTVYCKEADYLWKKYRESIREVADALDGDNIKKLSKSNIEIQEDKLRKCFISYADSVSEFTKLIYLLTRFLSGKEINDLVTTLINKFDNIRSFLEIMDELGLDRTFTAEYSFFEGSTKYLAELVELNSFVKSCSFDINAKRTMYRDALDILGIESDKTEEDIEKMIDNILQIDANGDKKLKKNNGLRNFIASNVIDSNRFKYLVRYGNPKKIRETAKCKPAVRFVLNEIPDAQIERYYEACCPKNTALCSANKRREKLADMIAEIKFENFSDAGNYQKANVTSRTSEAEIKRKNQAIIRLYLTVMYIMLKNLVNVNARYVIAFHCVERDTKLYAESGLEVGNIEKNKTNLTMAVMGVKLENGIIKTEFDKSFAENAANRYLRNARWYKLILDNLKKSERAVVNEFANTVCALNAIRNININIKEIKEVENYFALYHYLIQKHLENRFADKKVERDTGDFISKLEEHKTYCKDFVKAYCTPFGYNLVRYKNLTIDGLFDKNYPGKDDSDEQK

B1: target 1 complement block 2-7 (mixed)
RNA 1: CACCCGUGCAAAAAUGCAGGGGUCUAAAACUGAGCGGAUAACCUCUCUAUGG
RNA 2: GGGAAUGGAUCCACAUCUACGAAUUCGUACCAUAGAGAGGUUAUGGCGAGACCGAGAUCGGAAGAGCACACGU
B2: target 1 insC 3' of 15,insC 3' of 3 (mixed)
RNA 1: B1 RNA 1
RNA 2: GGGAAUGGAUCCACAUCUACGAAUUCGUACCAUAGAGCAGGUUAUCCGCUCCACCGAGAUCGGAAGAGCACACGU
B3: target 1 insG 3' of 14,insG 3' of 9 (mixed)
RNA 1: B1 RNA 1
RNA 2: B2 RNA 2 with C38A, A39G, U45G, C46U, G48C, C49G, U50C, C51U
B4: target 2 MT 5'PFS AGC 3'PFS ACU (mixed)
RNA 1: CACCCGUGCAAAAUUGCAGGGGUCUAAAACCUUCUCCAAAUUGUUUCAUCCU
RNA 2: GGGAAUGGAUCCACAUCUACGAAUUCAGCAGGAUGAAACAAUUUGGAGAAGACUAGAUCGGAAGAGCACACGU
B5: target 2 MT 5'PFS UUA 3'PFS CGC (mixed)
RNA 1: B4 RNA 1
RNA 2: B4 RNA 2 with A27U, G28U, C29A, A52C, C53G, U54C
B6: target 2 MT 5'PFS UCU 3'PFS UAC (mixed)
RNA 1: B4 RNA 1
RNA 2: B4 RNA 2 with A27U, G28C, C29U, A52U, C53A, U54C
B7: target 2 MT 5'PFS GCU 3'PFS AGC (mixed)
RNA 1: B4 RNA 1
RNA 2: B4 RNA 2 with A27G, G28C, C29U, C53G, U54C
B8: target 2 MT 5'PFS UUA 3'PFS AGA (mixed)
RNA 1: B4 RNA 1
RNA 2: B4 RNA 2 with A27U, G28U, C29A, C53G, U54A
B9: target 2 MT 5'PFS GGA 3'PFS UGA (mixed)
RNA 1: B4 RNA 1
RNA 2: B4 RNA 2 with A27G, C29A, A52U, C53G, U54A
B10: target 2 MT 5'PFS GUG 3'PFS ACA (mixed)
RNA 1: B4 RNA 1
RNA 2: B4 RNA 2 with A27G, G28U, C29G, U54A
B11: target 2 MT 5'PFS UAG 3'PFS UAC (mixed)
RNA 1: B4 RNA 1
RNA 2: B4 RNA 2 with A27U, G28A, C29G, A52U, C53A, U54C
B12: target 2 MT 5'PFS CGG 3'PFS CUU (mixed)
RNA 1: B4 RNA 1
RNA 2: B4 RNA 2 with A27C, C29G, A52C, C53U
B13: target 2 MT 5'PFS UUA 3'PFS CGG (mixed)
RNA 1: B4 RNA 1
RNA 2: B4 RNA 2 with A27U, G28U, C29A, A52C, C53G, U54G
B14: target 2 MT 5'PFS AGU 3'PFS ACU (mixed)
RNA 1: B4 RNA 1
RNA 2: B4 RNA 2 with C29U
B15: target 2 MT 5'PFS AGA 3'PFS AGA (mixed)
RNA 1: B4 RNA 1
RNA 2: B4 RNA 2 with C29A, C53G, U54A
B16: target 2 MT 5'PFS UAG 3'PFS UAU (mixed)
RNA 1: B4 RNA 1
RNA 2: B4 RNA 2 with A27U, G28A, C29G, A52U, C53A
B17: target 2 MT 5'PFS GUG 3'PFS ACC (mixed)
RNA 1: B4 RNA 1
RNA 2: B4 RNA 2 with A27G, G28U, C29G, U54C
B18: target 2 MT 5'PFS ACG 3'PFS UCC (mixed)
RNA 1: B4 RNA 1
RNA 2: B4 RNA 2 with G28C, C29G, A52U, U54C
B19: target 2 MT 5'PFS AGU 3'PFS ACG (mixed)
RNA 1: B4 RNA 1
RNA 2: B4 RNA 2 with C29U, U54G
B20: target 2 MT 5'PFS UUA 3'PFS AGC (mixed)
RNA 1: B4 RNA 1
RNA 2: B4 RNA 2 with A27U, G28U, C29A, C53G, U54C
B21: target 2 MT 5'PFS ACC 3'PFS UAU (mixed)
RNA 1: B4 RNA 1
RNA 2: B4 RNA 2 with G28C, A52U, C53A
B22: target 2 MT 5'PFS AAG 3'PFS UAC (mixed)
RNA 1: B4 RNA 1
RNA 2: B4 RNA 2 with G28A, C29G, A52U, C53A, U54C
B23: target 2 MT 5'PFS ACC 3'PFS UAG (mixed)
RNA 1: B4 RNA 1
RNA 2: B4 RNA 2 with G28C, A52U, C53A, U54G
B24: target 2 MT 5'PFS UCU 3'PFS UAA (mixed)
RNA 1: B4 RNA 1
RNA 2: B4 RNA 2 with A27U, G28C, C29U, A52U, C53A, U54A
B25: target 2 MT 5'PFS UUA 3'PFS CGA (mixed)
RNA 1: B4 RNA 1
RNA 2: B4 RNA 2 with A27U, G28U, C29A, A52C, C53G, U54A
B26: target 2 MT 5'PFS UAG 3'PFS UAA (mixed)
RNA 1: B4 RNA 1
RNA 2: B4 RNA 2 with A27U, G28A, C29G, A52U, C53A, U54A
B27: target 2 MT 5'PFS GUG 3'PFS ACG (mixed)
RNA 1: B4 RNA 1
RNA 2: B4 RNA 2 with A27G, G28U, C29G, U54G
B28: target 2 MT 5'PFS GUG 3'PFS ACU (mixed)
RNA 1: B4 RNA 1
RNA 2: B4 RNA 2 with A27G, G28U, C29G
B29: target 2 MT 5'PFS ACC 3'PFS UAC (mixed)
RNA 1: B4 RNA 1
RNA 2: B4 RNA 2 with G28C, A52U, C53A, U54C
B30: target 2 MT 5'PFS GUG 3'PFS CAC (mixed)
RNA 1: B4 RNA 1
RNA 2: B4 RNA 2 with A27G, G28U, C29G, A52C, C53A, U54C
B31: target 2 MT 5'PFS ACG 3'PFS UCU (mixed)
RNA 1: B4 RNA 1
RNA 2: B4 RNA 2 with G28C, C29G, A52U
B32: target 2 MT 5'PFS AGA 3'PFS AGC (mixed)
RNA 1: B4 RNA 1
RNA 2: B4 RNA 2 with C29A, C53G, U54C
B33: target 2 MT 5'PFS UUA 3'PFS AGG (mixed)
RNA 1: B4 RNA 1
RNA 2: B4 RNA 2 with A27U, G28U, C29A, C53G, U54G

Molecular target: T1, EsCas13d, nuclease-dead
Test: crRNA (strand 1, pre-loaded); Mg2+; 40 mM Tris-HCl pH 7.5, 150 mM NaCl, 6 mM MgCl2, 1 mM DTT, 0.1% Tween-20, 0.2 mg/ml BSA; 25 C; 10 min per concentration, then washed
Settings: tags: His6-TwinStrep-SUMO cleaved; N-terminal SNAP kept (SNAP-Surface 488); label: 3' end held by stalled T7 RNA polymerase

Row | Binder | Kd [nM]
1 | B1 | 13.8 ± 0.7
2 | B2 | 17.3 ± 0.9
3 | B3 | 21.5 ± 1.5
4 | B4 | 17 ± 6
5 | B5 | 48 ± 10
6 | B6 | 12.8 ± 2.5
7 | B7 | 7.8 ± 1.4
8 | B8 | 19.4 ± 3.2
9 | B9 | 15.6 ± 3.1
10 | B10 | 10.3 ± 0.9
11 | B11 | 2.65 ± 0.29
12 | B12 | 6.6 ± 0.9
13 | B13 | 20.9 ± 2.1
14 | B14 | 22 ± 7
15 | B15 | 4.9 ± 0.7
16 | B16 | 2.94 ± 0.19
17 | B17 | 20.8 ± 2.1

Row | Binder | Kd [nM]
18 | B18 | 34 ± 15
19 | B19 | 13.8 ± 1.7
20 | B20 | 19.3 ± 2.2
21 | B21 | 6.5 ± 1.4
22 | B22 | 4.4 ± 0.5
23 | B23 | 4.6 ± 0.8
24 | B24 | 12.8 ± 3.2
25 | B25 | 24 ± 4
26 | B26 | 2.8 ± 0.4
27 | B27 | 13.1 ± 0.8
28 | B28 | 12.9 ± 0.7
29 | B29 | 12 ± 5
30 | B30 | 10.6 ± 1
31 | B31 | 23 ± 7
32 | B32 | 5.6 ± 1.2
33 | B33 | 23.1 ± 3
